Measured values: paper PMC12435574

B1: Hsp47: S76A (protein)
parent chain: MRSLLLLSAFCLLEAALAAEVKKPAAAAAPGTAEKLSPKAATLAERSAGLAFSLYQAMAKDQAVENILVSPVVVASSLGLVSLGGKATTASQAKAVLSAEQLRDEEVHAGLGELLRSLSNSTARNVTWKLGSRLYGPSSVSFADDFVRSSKQHYNCEHSKINFRDKRSALQSINEWAAQTTDGKLPEVTKDVERTDGALLVNAMFFKPHWDEKFHHKMVDNRGFMVTRSYTVGVMMMHRTGLYNYYDDEKEKLQIVEMPLAHKLSSLIILMPHHVEPLERLEKLLTKEQLKIWMGKMQKKAVAISLPKGVVEVTHDLQKHLAGLGLTEAIDKNKADLSRMSGKKDLYLASVFHATAFELDTDGNPFDQDIYGREELRSPKLFYADHPFIFLVRDTQSGSLLFIGRLVRPKGDKMRDEL
B2: Hsp47: OSMI-1 (protein)
parent chain: MRSLLLLSAFCLLEAALAAEVKKPAAAAAPGTAEKLSPKAATLAERSAGLAFSLYQAMAKDQAVENILVSPVVVASSLGLVSLGGKATTASQAKAVLSAEQLRDEEVHAGLGELLRSLSNSTARNVTWKLGSRLYGPSSVSFADDFVRSSKQHYNCEHSKINFRDKRSALQSINEWAAQTTDGKLPEVTKDVERTDGALLVNAMFFKPHWDEKFHHKMVDNRGFMVTRSYTVGVMMMHRTGLYNYYDDEKEKLQIVEMPLAHKLSSLIILMPHHVEPLERLEKLLTKEQLKIWMGKMQKKAVAISLPKGVVEVTHDLQKHLAGLGLTEAIDKNKADLSRMSGKKDLYLASVFHATAFELDTDGNPFDQDIYGREELRSPKLFYADHPFIFLVRDTQSGSLLFIGRLVRPKGDKMRDEL

Columns and labels:
[1] = confocal immunofluorescence (LSCM), HCT116; conditions: glycan lost; control: wild type
[2] = immunofluorescence co-localisation with calnexin and GM130; conditions: glycan lost; control: cells without S76A mutation
[3] = confocal co-localisation with phalloidin, calnexin, GM130; conditions: glycan lost; control: untreated

Protein	other: collagen I secretion by cells [1]	other: response of collagen I secretion/procollagen transport to kaempferol or OGT knockdown [2]	localisation_or_trafficking [3]
B1	decreases	abolishes	
B2			changes
